In US20260061042A1, “POLYNUCLEOTIDE COMPOSITIONS AND USES THEREOF” (Pfizer Inc., priority 2024, published 2026):

B1: BMD576_PapG-DSF K172A_DAF-GPI: monovalent PapG modRNA LNP; RNA construct SEQ ID NO: 64 (nucleic acid)
chain: AGGAGGACUGGUCGAACCUGCAUAGUGAUCAUAAGGUCAGCAUAGCCACCAUGGAGACCGACACCCUCCUGCUGUGGGUGCUGUUACUGUGGGUGCCCGGUAGCACCGGCUGGAACAACAUCGUGUUCUACAGCCUGGGCAACGUGAACAGCUACCAAGGCGGCAACGUGGUGAUCACACAGAGACCUCAGUUCAUCACAAGCUGGAGACCCGGCAUCGCCACCGUGACCUGGAAUCAGUGCAACGGCCCCGAGUUCGCCGACGGCAGCUGGGCCUACUACAGAGAGUACAUCGCCUGGGUGGUGUUCCCCAAGAAGGUGAUGACCAAGAACGGCUACCCCCUGUUCAUCGAGGUGCACAACAAGGGCAGCUGGAGCGAGGAGAACACCGGCGACAGCGACAGCUACUUCUUCCUGAAGGGCUACAAGUGGGACGAGAGAGCCUUCGACGCCGGCAACCUGUGUCAGAAGCCGGGGGAGACGACCCGGCUUACAGAAAAGUUCAACGACAUCAUCUUCAAGGUGGCCCUGCCCGCCGACCUGCCCCUGGGCGACUACAGCGUGACCAUCCCCUACACAAGCGGCAUUCAGAGACACUUCGCUAGCUACCUGGGCGCUAGAUUCGCCAUCCCCUACAACGUGGCCAAGACCCUGCCUAGAGAGAACGAGAUGCUGUUCCUGUUCAAGAACAUCGGCGGCUGCAGACCUAGCGCUCAGAGCCUGGAGAUCAAGCACGGCGACCUGAGCAUCAACAGCGCCAACAACCACUACGCCGCUCAGACCCUGAGCGUGAGCUGCGACGUGCCCGCCAACAUCAGAUUCAUGCUGCUGAGAUCAACCACCCCCACCUACAGCCACGGCAAGAAGUUCAGCGUGGGCCUGGGCCACGGCUGGGACAGCAUCGUGAGCGUGAACGGCGUGGACACGGGCGAGACCACUAUGCGUUGGUACAAGGCCGGCACACAGAGCCUGACCAUCGGCAGCAGACUGUACGGCGAGAGCAGCAAGAUUCAACCGGGCGUGCUUAGUGGUUCCGCCACCCUGCUGAUGAUUCUGCCCGGCGGAAGCAGCGGCGGCGCCGACGUGCAGAUCAACAUCAGAGGCAACGUGUACAUACCCCCUUCGAGCGGAGGCGGCGGAUCGUCCGGCUCCGGGAGCAGCAGCGGCACCACACGGCUGCUGAGCGGCCACACCUGCUUCACCCUGACCGGCCUGCUGGGCACCCUGGUGACCAUGGGCCUGCUGACCUGAUGAGCUCGCUUUCUUGCUGUCCAAUUUCUAUUAAAGGUUCCUUUGUUCCCUAAGUCCAACUACUAAACUGGGGGAUAUUAUGAAGGGCCUUGAGCAUCUGGAUUCUGCCUAAUAAAAAACAUUUAUUUUCAUUGCAAAAAAAAAAAAAAAAAAAAAAAAAAAAAAAAAAAAAAAAAAAAAAAAAAAAAAAAAAAAAAAAAAAAAAAAAAAAAAAAAA
modifications: modRNA in LNP
B2: BMD562_PapG-DSF K172A_DAF-GPI: monovalent PapG modRNA LNP; RNA construct SEQ ID NO: 63 (nucleic acid)
chain: AGGAAAUAAGAGAAAGAGGAUAAGACGACUAAGGAGACAUACAGAAUAAGAGGCAGCCACCAUGGAGACCGACACCCUCCUGCUGUGGGUGCUGUUACUGUGGGUGCCCGGUAGCACCGGCUGGAACAACAUCGUGUUCUACAGCCUGGGCAACGUGAACAGCUACCAAGGCGGCAACGUGGUGAUCACACAGAGACCUCAGUUCAUCACAAGCUGGAGACCCGGCAUCGCCACCGUGACCUGGAAUCAGUGCAACGGCCCCGAGUUCGCCGACGGCAGCUGGGCCUACUACAGAGAGUACAUCGCCUGGGUGGUGUUCCCCAAGAAGGUGAUGACCAAGAACGGCUACCCCCUGUUCAUCGAGGUGCACAACAAGGGCAGCUGGAGCGAGGAGAACACCGGCGACAGCGACAGCUACUUCUUCCUGAAGGGCUACAAGUGGGACGAGAGAGCCUUCGACGCCGGCAACCUGUGUCAGAAGCCGGGGGAGACGACCCGGCUUACAGAAAAGUUCAACGACAUCAUCUUCAAGGUGGCCCUGCCCGCCGACCUGCCCCUGGGCGACUACAGCGUGACCAUCCCCUACACAAGCGGCAUUCAGAGACACUUCGCUAGCUACCUGGGCGCUAGAUUCGCCAUCCCCUACAACGUGGCCAAGACCCUGCCUAGAGAGAACGAGAUGCUGUUCCUGUUCAAGAACAUCGGCGGCUGCAGACCUAGCGCUCAGAGCCUGGAGAUCAAGCACGGCGACCUGAGCAUCAACAGCGCCAACAACCACUACGCCGCUCAGACCCUGAGCGUGAGCUGCGACGUGCCCGCCAACAUCAGAUUCAUGCUGCUGAGAUCAACCACCCCCACCUACAGCCACGGCAAGAAGUUCAGCGUGGGCCUGGGCCACGGCUGGGACAGCAUCGUGAGCGUGAACGGCGUGGACACGGGCGAGACCACUAUGCGUUGGUACAAGGCCGGCACACAGAGCCUGACCAUCGGCAGCAGACUGUACGGCGAGAGCAGCAAGAUUCAACCGGGCGUGCUUAGUGGUUCCGCCACCCUGCUGAUGAUUCUGCCCGGCGGAAGCAGCGGCGGCGCCGACGUGCAGAUCAACAUCAGAGGCAACGUGUACAUACCCCCUUCGAGCGGAGGCGGCGGAUCGUCCGGCUCCGGGAGCAGCAGCGGCACCACACGGCUGCUGAGCGGCCACACCUGCUUCACCCUGACCGGCCUGCUGGGCACCCUGGUGACCAUGGGCCUGCUGACCUGAUGAGCUCGCUUUCUUGCUGUCCAAUUUCUAUUAAAGGUUCCUUUGUUCCCUAAGUCCAACUACUAAACUGGGGGAUAUUAUGAAGGGCCUUGAGCAUCUGGAUUCUGCCUAAUAAAAAACAUUUAUUUUCAUUGCAAAAAAAAAAAAAAAAAAAAAAAAAAAAAAAAAAAAAAAAAAAAAAAAAAAAAAAAAAAAAAAAAAAAAAAAAAAAAAAAAA
modifications: modRNA in LNP

Test system: E. coli strain CFT073 expressing the fimbrial adhesin PapG
Assay: PapG hemagglutination inhibition (HAI) assay on sera of mice immunized with PapG modRNA LNPs
Format: in vivo
Settings: 50 μl IM; for Step Titer GMT (HAI): weeks 0, 4, bleed week 6, GMT of individual titers; for Step Titer Pool (HAI): weeks 0, 4, bleed week 6, serum pool
Description: Escherichia coli to the uroepithelium of human kidney. The PapG lectin binds to the globoside (GbO4) glycolipid, which is enriched in urinary tract tissue and consists of the tetrasacharide GalNAcβ1-3Galα1-4Galβ1-4Glc linked to ceramide. Here we present the use of a hemagglutination inhibition assay (HAI) to determine vaccine functional responses to protein subunit PapG or mRNA-expressed PapG antigens. In this assay the agglutination of human red blood cells (hRBCs) expressing GbO4 is caused by live E. coli CFT073 bacteria expressing PapG. The HAI assay measures the ability of PapG-elicited antibodies to prevent hRBC agglutination, exemplifying inhibition of the key bacterial adherence mechanism leading to clinical pyelonephritis. The assay was used to characterize the functional activity of PapG monoclonal antibodies (mAbs) raised against a PapG lectin domain subunit antigen. PapG HAI data from a mouse immunogenicity study are described that evaluated various 5 monovalent PapG modRNA LNPs and a PapG subunit comparator.
In this mouse study immunogenicity of different PapG mRNA constructs were evaluated. […]
iii. PapG Hemagglutination Inhibition Assay (HAI) 1. Preparation of Single Use Frozen E. coli CFT073 Banks Frozen bacterial stocks for use in the PapG HAI are stored at a concentration of ˜15 OD/mL. For stock preparation, take 6 ×100 μL of frozen parental strain CFT073 glycerol stock to seed six overnight cultures with ˜85 mL Luria's Broth (LB) each in 250 mL vented flasks. Flasks are shaken at 200 rpm and 37° C. overnight. On the same day, prepare 100 mL LB media with 30% glycerol and 0.4% sucrose by mixing […] 80% Glycerol with 0.8 mL 50% Sucrose in 64 mL LB and pre-chill at 4° C. After ˜16 h growth, determine the OD600 nm of each flask with the SpectraMax M5e plate reader by adding 100 μL culture to 900 μL LB (1:10 dilution). After reading the OD600, harvest cells by pelleting in a centrifuge at 4,000g, 4° C., for 30 minute. Determine the total OD of each of the six flasks, by multiplying the volume by OD/mL of each flask and divide by 15 OD to give the appropriate pellet resuspension volume. Discard supernatants and resuspend all pellets in the pre-chilled LB cryopreservant containing 30% glycerol and 0.4% sucrose, with a final volume as calculated above. Pool all resuspended pellets and mix gently, then aliquot into 1 mL/cryotube, and freeze at −70° C.
2. Preparing 10% hRBC Working Solution From Stock
Gently mix human red blood cells (hRBC) bottle (Rockland) by rocking ˜20×times, pipet out 10 mL of the hRBCs into a 15 ml conical tube. Centrifuge at 2,000 rpm(˜990×g) for 10 minutes and 4° C. Aspirate and discard the supernatant, then resuspend the pellet with 9 mL 4° C. PBS. The packed hRBCs in 15 mL conical tube should constitute roughly 1 mL of this total volume. Store these 10% hRBCs at 4° C. until use. […]
iv. PapG Hemagglutination Inhibition (HAI) Assay
The PapG hemagglutination inhibition (HAI) assay uses human red blood cells (hRBCs), which naturally express the PapG ligand GbO4 (globotetraosyl ceramide) on the cell surface, and the E. coli strain CFT073 expressing the fimbrial adhesin PapG. Upon mixing bacteria with hRBCs, […] cells remain suspended (presenting as a cloudy well), while no binding results in the red blood cells falling out of solution towards the center of the well (observed as pellet).
The total final well volume is 100 μL, with serum dilutions comprising 25 μL of this volume, strain CFT073 cells in […] volume, and hRBCs in a 50 μL volume. The assay plate is a V-bottom plate to which 25 μL 4° C. PBS is initially added to all wells. The positive control wells receive an additional 25 μL 4° C. PBS. The no-serum negative control consists of E. coli CFT073 cells plus hRBCs only (resulting agglutinated well appears cloudy). To accommodate pre-diluted sera transferred from the serum Master Dilution plate (MDP) an extra 5 μL 4° C. PBS is added to wells in Row A of the assay plate (columns 1 to 12). […]

Molecule | Step Titer GMT (HAI) (0.2 μg) | Step Titer Pool (HAI) (0.2 μg) | Step Titer GMT (HAI) (1 μg) | Step Titer Pool (HAI) (1 μg) | Step Titer GMT (HAI) (5 μg) | Step Titer Pool (HAI) (5 μg)
B1 | 50,054 | 54,000 | 69,595 | 27,000 | 141,214 | 81,000
B2 |  |  | 65,875 | 81,000 |  | 
